Test results: article PMC9482650, “Quantitative fragmentomics allow affinity mapping of interactomes” (Nature Communications, 2022)

T1: DLG3_1, Q92796
T1 sequence (Q92796 125-227, limits assumed, looked up): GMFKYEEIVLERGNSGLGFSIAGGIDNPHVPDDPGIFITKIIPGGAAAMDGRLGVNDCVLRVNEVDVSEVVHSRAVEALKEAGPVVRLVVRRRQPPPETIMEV

T2: HTRA3, P83110
T2 sequence (P83110 354-453, limits assumed, looked up): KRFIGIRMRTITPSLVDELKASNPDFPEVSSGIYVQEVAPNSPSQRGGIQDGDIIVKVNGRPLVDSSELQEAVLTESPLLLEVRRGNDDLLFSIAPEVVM

T3: LIN7B, Q9HAP6
T3 sequence (Q9HAP6 88-185, limits assumed, looked up): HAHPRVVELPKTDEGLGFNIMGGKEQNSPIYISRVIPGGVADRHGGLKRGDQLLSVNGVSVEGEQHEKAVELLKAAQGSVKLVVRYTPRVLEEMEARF

T4: PCLO, Q9Y6V0
T4 sequence (Q9Y6V0 4491-4600, limits assumed, looked up): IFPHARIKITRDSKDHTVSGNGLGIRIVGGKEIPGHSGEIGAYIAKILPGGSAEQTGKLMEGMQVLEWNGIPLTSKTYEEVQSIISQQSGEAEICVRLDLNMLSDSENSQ

T5: PDZD2_2, O15018
T5 sequence (O15018 329-429, limits assumed, looked up): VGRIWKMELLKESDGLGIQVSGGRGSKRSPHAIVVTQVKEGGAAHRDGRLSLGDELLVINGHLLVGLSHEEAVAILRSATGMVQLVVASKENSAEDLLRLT

T6: RAPGEF6, Q8TEU7
T6 sequence (Q8TEU7 525-625, limits assumed, looked up): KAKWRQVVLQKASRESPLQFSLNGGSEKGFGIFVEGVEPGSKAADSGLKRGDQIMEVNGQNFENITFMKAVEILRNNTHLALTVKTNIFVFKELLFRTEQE

T7: SNTG1, Q9NSN8
T7 sequence (Q9NSN8 52-150, limits assumed, looked up): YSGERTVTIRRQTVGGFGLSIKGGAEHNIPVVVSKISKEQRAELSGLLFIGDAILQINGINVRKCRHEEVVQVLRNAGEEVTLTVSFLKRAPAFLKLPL

T8: TIAM2, Q8IVF5
T8 sequence (Q8IVF5 885-986, limits assumed, looked up): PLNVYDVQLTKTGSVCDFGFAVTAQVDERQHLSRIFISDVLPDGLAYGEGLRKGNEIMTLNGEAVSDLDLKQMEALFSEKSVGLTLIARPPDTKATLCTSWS

T9: TX1BP3, O14907
T9 sequence (O14907 10-122, limits assumed, looked up): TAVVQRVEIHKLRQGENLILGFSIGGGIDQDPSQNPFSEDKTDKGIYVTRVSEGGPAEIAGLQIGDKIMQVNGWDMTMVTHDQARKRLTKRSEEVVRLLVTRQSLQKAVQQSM

B1: FZD4, Q9ULV1 (peptide)
chain: KPGKGSETVV
B2: PLXNB1, O43157 (peptide)
chain: AAVENKVTDL

molecular target: T1, DLG3_1, Q92796; experiment: holdup assay; parameters: key: below the threshold = too weak to quantify, mostly under pKd 3.1 to 4; settings: plain residues with an end cap or a label only (N-terminal biotin on a linker: ado-ado)

| Binder | pKd |
| --- | --- |
| B1 | 4.28 |
| B2 | below the threshold |

molecular target: DLG4_2, P78352; experiment: holdup assay; parameters: key: below the threshold = too weak to quantify, mostly under pKd 3.1 to 4; settings: plain residues with an end cap or a label only (N-terminal biotin on a linker: ado-ado)
Sequence (P78352 155-259): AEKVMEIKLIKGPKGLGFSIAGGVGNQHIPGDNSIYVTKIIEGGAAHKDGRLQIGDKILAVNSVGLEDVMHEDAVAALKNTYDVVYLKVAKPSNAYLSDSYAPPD

| Binder | pKd |
| --- | --- |
| B1 | 4.92 |
| B2 | 4.2 |

molecular target: DLG4_3, P78352; experiment: holdup assay; parameters: key: below the threshold = too weak to quantify, mostly under pKd 3.1 to 4; settings: plain residues with an end cap or a label only (N-terminal biotin on a linker: ado-ado)
Sequence (P78352 306-403): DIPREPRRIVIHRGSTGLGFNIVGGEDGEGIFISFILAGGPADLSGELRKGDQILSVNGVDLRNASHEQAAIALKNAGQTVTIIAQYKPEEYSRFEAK

| Binder | pKd |
| --- | --- |
| B1 | 3.79 |
| B2 | below the threshold |

molecular target: FRMPD2_1, Q68DX3; experiment: holdup assay; parameters: key: below the threshold = too weak to quantify, mostly under pKd 3.1 to 4; settings: plain residues with an end cap or a label only (N-terminal biotin on a linker: ado-ado)
Sequence (Q68DX3 770-861): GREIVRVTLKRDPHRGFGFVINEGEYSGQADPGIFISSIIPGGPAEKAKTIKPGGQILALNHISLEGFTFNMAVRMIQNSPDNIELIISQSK

| Binder | pKd |
| --- | --- |
| B1 | 3.54 |
| B2 | below the threshold |

molecular target: FRMPD2_2, Q68DX3; experiment: holdup assay; parameters: key: below the threshold = too weak to quantify, mostly under pKd 3.1 to 4; settings: plain residues with an end cap or a label only (N-terminal biotin on a linker: ado-ado)
Sequence (Q68DX3 944-1038): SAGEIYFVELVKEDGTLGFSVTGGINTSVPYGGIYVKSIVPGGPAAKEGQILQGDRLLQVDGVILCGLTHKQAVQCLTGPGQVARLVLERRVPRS

| Binder | pKd |
| --- | --- |
| B1 | below the threshold |
| B2 | below the threshold |

molecular target: GOPC, Q9HD26; experiment: holdup assay; parameters: key: below the threshold = too weak to quantify, mostly under pKd 3.1 to 4; settings: plain residues with an end cap or a label only (N-terminal biotin on a linker: ado-ado)

| Binder | pKd |
| --- | --- |
| B1 | 3.73 |
| B2 | 3.65 |

molecular target: GRIP2_4, Q9C0E4; experiment: holdup assay; parameters: key: below the threshold = too weak to quantify, mostly under pKd 3.1 to 4; settings: plain residues with an end cap or a label only (N-terminal biotin on a linker: ado-ado)
Sequence (Q9C0E4 446-548): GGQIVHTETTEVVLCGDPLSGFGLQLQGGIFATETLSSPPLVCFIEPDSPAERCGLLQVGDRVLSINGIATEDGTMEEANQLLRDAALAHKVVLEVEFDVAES

| Binder | pKd |
| --- | --- |
| B1 | below the threshold |
| B2 | below the threshold |

molecular target: HTRA2, O43464; experiment: holdup assay; parameters: key: below the threshold = too weak to quantify, mostly under pKd 3.1 to 4; settings: plain residues with an end cap or a label only (N-terminal biotin on a linker: ado-ado)
Sequence (O43464 355-458): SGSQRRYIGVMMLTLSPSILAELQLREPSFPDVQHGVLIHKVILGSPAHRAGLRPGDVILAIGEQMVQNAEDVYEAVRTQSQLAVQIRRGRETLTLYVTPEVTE

| Binder | pKd |
| --- | --- |
| B1 | below the threshold |
| B2 | below the threshold |

molecular target: T2, HTRA3, P83110; experiment: holdup assay; parameters: key: below the threshold = too weak to quantify, mostly under pKd 3.1 to 4; settings: plain residues with an end cap or a label only (N-terminal biotin on a linker: ado-ado)

| Binder | pKd |
| --- | --- |
| B1 | below the threshold |
| B2 | below the threshold |

molecular target: IL16_4, Q14005; experiment: holdup assay; parameters: key: below the threshold = too weak to quantify, mostly under pKd 3.1 to 4; settings: plain residues with an end cap or a label only (N-terminal biotin on a linker: ado-ado)
Sequence (Q14005 1229-1329): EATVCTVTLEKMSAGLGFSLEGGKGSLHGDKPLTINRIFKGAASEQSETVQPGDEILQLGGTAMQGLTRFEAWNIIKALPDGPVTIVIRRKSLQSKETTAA

| Binder | pKd |
| --- | --- |
| B1 | below the threshold |
| B2 | below the threshold |

molecular target: Inadl_1, Q8NI35; experiment: holdup assay; parameters: key: below the threshold = too weak to quantify, mostly under pKd 3.1 to 4; settings: plain residues with an end cap or a label only (N-terminal biotin on a linker: ado-ado)
Sequence (Q8NI35 113-229): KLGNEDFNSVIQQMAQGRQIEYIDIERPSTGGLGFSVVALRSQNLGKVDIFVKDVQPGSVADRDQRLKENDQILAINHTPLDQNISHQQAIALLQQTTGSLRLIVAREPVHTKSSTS

| Binder | pKd |
| --- | --- |
| B1 | below the threshold |
| B2 | below the threshold |

molecular target: Inadl_6, Q8NI35; experiment: holdup assay; parameters: key: below the threshold = too weak to quantify, mostly under pKd 3.1 to 4; settings: plain residues with an end cap or a label only (N-terminal biotin on a linker: ado-ado)
Sequence (Q8NI35 1058-1167): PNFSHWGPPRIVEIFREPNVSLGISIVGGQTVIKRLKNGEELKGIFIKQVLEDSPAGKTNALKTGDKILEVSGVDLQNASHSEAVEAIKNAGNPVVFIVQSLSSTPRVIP

| Binder | pKd |
| --- | --- |
| B1 | 3.56 |
| B2 | 4.14 |

molecular target: Inadl_9, Q8NI35; experiment: holdup assay; parameters: key: below the threshold = too weak to quantify, mostly under pKd 3.1 to 4; settings: plain residues with an end cap or a label only (N-terminal biotin on a linker: ado-ado)
Sequence (Q8NI35 1530-1615): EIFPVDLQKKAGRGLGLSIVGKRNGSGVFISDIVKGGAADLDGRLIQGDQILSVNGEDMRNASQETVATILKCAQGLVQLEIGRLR

| Binder | pKd |
| --- | --- |
| B1 | below the threshold |
| B2 | below the threshold |

molecular target: LAP2, Q96RT1; experiment: holdup assay; parameters: key: below the threshold = too weak to quantify, mostly under pKd 3.1 to 4; settings: plain residues with an end cap or a label only (N-terminal biotin on a linker: ado-ado)
Sequence (Q96RT1 other isoform, or with tags, fused parts or gaps): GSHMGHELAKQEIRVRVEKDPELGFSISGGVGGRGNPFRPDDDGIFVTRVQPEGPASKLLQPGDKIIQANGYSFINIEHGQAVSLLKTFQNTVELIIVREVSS

| Binder | pKd |
| --- | --- |
| B1 | below the threshold |
| B2 | 3.54 |

molecular target: T3, LIN7B, Q9HAP6; experiment: holdup assay; parameters: key: below the threshold = too weak to quantify, mostly under pKd 3.1 to 4; settings: plain residues with an end cap or a label only (N-terminal biotin on a linker: ado-ado)

| Binder | pKd |
| --- | --- |
| B1 | below the threshold |
| B2 | below the threshold |

molecular target: LNX1_1, Q8TBB1; experiment: holdup assay; parameters: key: below the threshold = too weak to quantify, mostly under pKd 3.1 to 4; settings: plain residues with an end cap or a label only (N-terminal biotin on a linker: ado-ado)
Sequence (Q8TBB1 261-371): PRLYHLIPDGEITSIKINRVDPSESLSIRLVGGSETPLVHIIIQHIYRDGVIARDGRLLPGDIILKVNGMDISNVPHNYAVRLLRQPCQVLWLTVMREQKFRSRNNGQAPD

| Binder | pKd |
| --- | --- |
| B1 | below the threshold |
| B2 | 4.19 |

molecular target: MAGI2_3, Q86UL8; experiment: holdup assay; parameters: key: below the threshold = too weak to quantify, mostly under pKd 3.1 to 4; settings: plain residues with an end cap or a label only (N-terminal biotin on a linker: ado-ado)
Sequence (Q86UL8 600-682): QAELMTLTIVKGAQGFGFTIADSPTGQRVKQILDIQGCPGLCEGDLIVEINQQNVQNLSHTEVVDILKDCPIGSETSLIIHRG

| Binder | pKd |
| --- | --- |
| B1 | below the threshold |
| B2 | below the threshold |

molecular target: NHERF4_2, Q86UT5; experiment: holdup assay; parameters: key: below the threshold = too weak to quantify, mostly under pKd 3.1 to 4; settings: plain residues with an end cap or a label only (N-terminal biotin on a linker: ado-ado)
Sequence (Q86UT5 220-308): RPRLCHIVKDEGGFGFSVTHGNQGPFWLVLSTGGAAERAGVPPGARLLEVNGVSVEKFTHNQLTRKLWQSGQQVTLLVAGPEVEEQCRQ

| Binder | pKd |
| --- | --- |
| B1 | below the threshold |
| B2 | below the threshold |

molecular target: T4, PCLO, Q9Y6V0; experiment: holdup assay; parameters: key: below the threshold = too weak to quantify, mostly under pKd 3.1 to 4; settings: plain residues with an end cap or a label only (N-terminal biotin on a linker: ado-ado)

| Binder | pKd |
| --- | --- |
| B1 | below the threshold |
| B2 | below the threshold |

molecular target: PDLIM1, O00151; experiment: holdup assay; parameters: key: below the threshold = too weak to quantify, mostly under pKd 3.1 to 4; settings: plain residues with an end cap or a label only (N-terminal biotin on a linker: ado-ado)
Sequence (O00151 1-87): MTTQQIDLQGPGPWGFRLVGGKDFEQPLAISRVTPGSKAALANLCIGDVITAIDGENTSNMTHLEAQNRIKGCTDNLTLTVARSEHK

| Binder | pKd |
| --- | --- |
| B1 | below the threshold |
| B2 | 3.77 |

molecular target: T5, PDZD2_2, O15018; experiment: holdup assay; parameters: key: below the threshold = too weak to quantify, mostly under pKd 3.1 to 4; settings: plain residues with an end cap or a label only (N-terminal biotin on a linker: ado-ado)

| Binder | pKd |
| --- | --- |
| B1 | 3.76 |
| B2 | 4.65 |

molecular target: T6, RAPGEF6, Q8TEU7; experiment: holdup assay; parameters: key: below the threshold = too weak to quantify, mostly under pKd 3.1 to 4; settings: plain residues with an end cap or a label only (N-terminal biotin on a linker: ado-ado)

| Binder | pKd |
| --- | --- |
| B1 | below the threshold |
| B2 | below the threshold |

molecular target: SCRIB_3, Q14160; experiment: holdup assay; parameters: key: below the threshold = too weak to quantify, mostly under pKd 3.1 to 4; settings: plain residues with an end cap or a label only (N-terminal biotin on a linker: ado-ado)
Sequence (Q14160 999-1103): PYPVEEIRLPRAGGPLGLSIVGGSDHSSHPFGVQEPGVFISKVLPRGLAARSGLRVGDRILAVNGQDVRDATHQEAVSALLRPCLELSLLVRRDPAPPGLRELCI

| Binder | pKd |
| --- | --- |
| B1 | 3.94 |
| B2 | 4.94 |

molecular target: T7, SNTG1, Q9NSN8; experiment: holdup assay; parameters: key: below the threshold = too weak to quantify, mostly under pKd 3.1 to 4; settings: plain residues with an end cap or a label only (N-terminal biotin on a linker: ado-ado)

| Binder | pKd |
| --- | --- |
| B1 | 3.91 |
| B2 | 3.74 |

molecular target: T8, TIAM2, Q8IVF5; experiment: holdup assay; parameters: key: below the threshold = too weak to quantify, mostly under pKd 3.1 to 4; settings: plain residues with an end cap or a label only (N-terminal biotin on a linker: ado-ado)

| Binder | pKd |
| --- | --- |
| B1 | below the threshold |
| B2 | below the threshold |

molecular target: TJP1_3, Q07157; experiment: holdup assay; parameters: key: below the threshold = too weak to quantify, mostly under pKd 3.1 to 4; settings: plain residues with an end cap or a label only (N-terminal biotin on a linker: ado-ado)
Sequence (Q07157 416-512): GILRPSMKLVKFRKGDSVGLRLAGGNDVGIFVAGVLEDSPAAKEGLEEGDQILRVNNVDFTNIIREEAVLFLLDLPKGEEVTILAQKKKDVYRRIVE

| Binder | pKd |
| --- | --- |
| B1 | below the threshold |
| B2 | below the threshold |

molecular target: TJP2_1, Q9UDY2; experiment: holdup assay; parameters: key: below the threshold = too weak to quantify, mostly under pKd 3.1 to 4; settings: plain residues with an end cap or a label only (N-terminal biotin on a linker: ado-ado)
Sequence (Q9UDY2 24-128): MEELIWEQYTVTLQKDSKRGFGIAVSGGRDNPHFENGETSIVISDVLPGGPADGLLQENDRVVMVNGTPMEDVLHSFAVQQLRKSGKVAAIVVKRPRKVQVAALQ

| Binder | pKd |
| --- | --- |
| B1 | below the threshold |
| B2 | below the threshold |

molecular target: T9, TX1BP3, O14907; experiment: holdup assay; parameters: key: below the threshold = too weak to quantify, mostly under pKd 3.1 to 4; settings: plain residues with an end cap or a label only (N-terminal biotin on a linker: ado-ado)

| Binder | pKd |
| --- | --- |
| B1 | below the threshold |
| B2 | 4.77 |
